Molecular target: GST-RPGR^1–15 H98Q (UniProt Q92834)
Experiment: pull-down

Chain of UniProt Q92834 (Q92834 whole entry H98Q): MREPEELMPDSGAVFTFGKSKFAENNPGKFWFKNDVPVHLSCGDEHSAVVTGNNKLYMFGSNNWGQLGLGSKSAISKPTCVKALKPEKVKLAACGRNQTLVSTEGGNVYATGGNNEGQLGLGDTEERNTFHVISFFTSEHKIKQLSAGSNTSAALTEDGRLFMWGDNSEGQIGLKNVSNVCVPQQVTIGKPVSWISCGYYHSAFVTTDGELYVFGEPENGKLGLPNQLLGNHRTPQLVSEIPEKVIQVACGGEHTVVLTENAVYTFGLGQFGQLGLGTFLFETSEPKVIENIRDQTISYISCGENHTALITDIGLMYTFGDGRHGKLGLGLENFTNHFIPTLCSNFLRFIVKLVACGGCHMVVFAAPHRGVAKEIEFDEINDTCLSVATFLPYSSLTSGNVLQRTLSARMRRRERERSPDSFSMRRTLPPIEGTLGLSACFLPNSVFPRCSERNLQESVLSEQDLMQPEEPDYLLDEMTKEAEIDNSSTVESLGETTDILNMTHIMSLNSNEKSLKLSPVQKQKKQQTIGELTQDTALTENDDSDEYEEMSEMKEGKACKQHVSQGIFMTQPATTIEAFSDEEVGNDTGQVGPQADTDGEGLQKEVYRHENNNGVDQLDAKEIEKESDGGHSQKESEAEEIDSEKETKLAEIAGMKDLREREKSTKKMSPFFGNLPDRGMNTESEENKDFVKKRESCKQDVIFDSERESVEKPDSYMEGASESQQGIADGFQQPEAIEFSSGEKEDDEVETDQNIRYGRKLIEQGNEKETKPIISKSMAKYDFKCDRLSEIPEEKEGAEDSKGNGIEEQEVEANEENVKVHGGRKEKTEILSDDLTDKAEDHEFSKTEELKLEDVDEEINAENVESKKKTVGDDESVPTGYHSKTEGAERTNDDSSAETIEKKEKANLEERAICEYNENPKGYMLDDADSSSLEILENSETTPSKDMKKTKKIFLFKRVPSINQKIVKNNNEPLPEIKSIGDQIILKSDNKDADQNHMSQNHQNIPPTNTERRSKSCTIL

## ^35S-labeled RAB8A-T22N (GDP-locked form), in vitro translated (from UniProt P61006 1-207) (natural protein)
  fold less association than WT-RPGR: 5 fold
